Assay results reported in patent publication US20140178935A1 (AVEO PHARMACEUTICALS, published 2014).

T1: recombinant mouse-human-mouse (mhm) chimeric HGF protein containing the human V495-L585 HGF sequence disposed … (mouse-human-mouse chimera, UniProt Q08048 56-728)
T1 construct: CHO supernatant was used; also called mhm chimera (V495-L585); MHM chimera (495-585)
T1 chain: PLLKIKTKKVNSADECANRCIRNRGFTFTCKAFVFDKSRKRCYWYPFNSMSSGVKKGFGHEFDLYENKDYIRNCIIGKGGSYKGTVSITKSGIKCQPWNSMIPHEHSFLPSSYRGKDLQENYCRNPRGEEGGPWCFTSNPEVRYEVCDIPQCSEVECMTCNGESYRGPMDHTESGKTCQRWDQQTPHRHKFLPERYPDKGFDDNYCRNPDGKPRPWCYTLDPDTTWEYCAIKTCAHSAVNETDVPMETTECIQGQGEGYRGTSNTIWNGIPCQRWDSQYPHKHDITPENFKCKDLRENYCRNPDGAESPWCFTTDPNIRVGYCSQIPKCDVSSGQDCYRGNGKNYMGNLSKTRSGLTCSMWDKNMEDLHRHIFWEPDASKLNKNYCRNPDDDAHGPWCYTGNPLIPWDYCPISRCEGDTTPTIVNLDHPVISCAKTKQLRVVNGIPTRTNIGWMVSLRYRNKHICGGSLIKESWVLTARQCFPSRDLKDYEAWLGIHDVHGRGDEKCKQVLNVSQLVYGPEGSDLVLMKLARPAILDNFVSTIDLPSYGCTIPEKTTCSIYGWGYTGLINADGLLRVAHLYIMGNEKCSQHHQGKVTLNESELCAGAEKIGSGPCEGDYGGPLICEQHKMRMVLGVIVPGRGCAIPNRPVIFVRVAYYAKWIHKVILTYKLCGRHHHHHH


Legend:
[1] = biological target: T2, recombinant human HGF (R&D Systems, Catalog No. 294-HGN-025) (human, UniProt P14210 32-728); experiment: cell-based or functional assay
[2] = biological target: T1, recombinant mouse-human-mouse (mhm) …; experiment: SPR, antibody immobilized, HGF protein injected, 25 C
Description: (§1) Each antibody was immobilized on a carboxymethylated dextran CM5 sensor chip (BIAcore, Catalog No. BR-1006-68) by amine coupling (BIAcore, Catalog No. BR-1000-50) using a standard coupling protocol according to manufacturer's instructions.
(§2) Analyses were performed at 25° C. using PBS (GIBCO, Catalog No. 14040-133) containing 0.05% surfactant P20 (BIAcore, Catalog No. R-1000-54), 2 mg/mL BSA (EMD, Catalog No. 2930) and 10 mg/mL CM-Dextran Sodium salt (Fluka, Catalog No. 86524) as running buffer. […] The resulting binding was determined as resonance units (RU) over baseline 30 seconds after the end of injection. […] Non-specific binding was monitored by comparing binding to a control surface where mouse IgG (Rockland, Catalog No. 010-0102) was immobilized using the same amine coupling procedure.

[3] = biological target: T3, recombinant mouse HGF (R&D Systems) (mouse, UniProt Q08048 33-728); experiment: as above
T3 construct: Bought protein, construct not described; also called rmHGF (R&D Systems); murine HGF
Description: as §1, §2

[4] = biological target: hHGF-Fc C561R (recombinant hHGF protein containing a cysteine to arginine substitution at position 561) (human); experiment: as above
Description: as §1, §2

[5] = biological target: hHGF-Fc G555E (recombinant hHGF protein containing a glycine to glutamate substitution at position 555) (human); experiment: as above
Description: as §1, §2

[6] = biological target: T2, recombinant human HGF (R&D Systems, …); experiment: cell-based or functional assay; remark: listed apart in the source
[7] = biological target: T2, recombinant human HGF (R&D Systems, …); experiment: SPR, antibody captured by anti-mouse Ig, HGF injected, 25 C
Description: Rabbit anti-mouse immunoglobulins (BIAcore, Catalog No. BR-1005-14) were immobilized on carboxymethylated dextran CM5 sensor chips (BIAcore, Catalog No. BR-1006-68) by amine coupling (BIAcore, Catalog No. BR-1000-50) using a standard coupling protocol according to manufacturer's instructions. The analyses were performed at 25° C. using PBS (GIBCO, Catalog No. 14040-133) containing 0.05% surfactant P20 (BIAcore, Catalog No. BR-1000-54), 2 mg/mL BSA (EMD, Catalog No. 2930), and 10 mg/mL CM-Dextran Sodium salt (Fluka, Catalog No. 86524) as running buffer.
The antibodies were captured in an individual flow cell at a flow rate of 10 μL/min. Injection time was variable for each antibody to yield approximately 20 RU of antibody captured for each cycle. […] The dissociation phase was monitored for 15 or 90 minutes, depending on concentration. The surface then was regenerated with 10 mM Glycine-HCl, pH 1.7 (BIAcore, Catalog No. BR-1003-54) injected for 3 minutes at a flow rate of 60 μL/min before another cycle was initiated.
Kinetic parameters were determined using the kinetic function of the BIAevalutation software with reference subtraction.

[8] = biological target: T2, recombinant human HGF (R&D Systems, …); experiment: competition ELISA (DELFIA): antibody inhibits c-Met binding to plate-coated HGF
Description: The plates then were blocked with 200 μL of 5% non-fat dry milk in PBS for 1 hour at room temperature. […] 100 μL of sample per well was transferred to the assay plate and incubated overnight at 4° C.
The resulting plates then were washed three times with PBS-0.1% Tween 20, and incubated for 1 hour at room temperature with Eu-labeled Streptavidin (Wallac, Catalog No. 1244-360) diluted 1:1000 in DELFIA assay buffer (Wallac, Catalog No. 4002-0010). The resulting plates were washed 3 times with DELFIA wash solution (Wallac, Catalog No. 4010-0010) and incubated with 100 μL/well DELFIA enhancement solution (Wallac #4001-0010) for 15 minutes at room temperature with agitation.
The plates were read on Victor³V instrument (Perkin Elmer) using the Europium method.

T3 sequence (Q08048 33-728 limits assumed): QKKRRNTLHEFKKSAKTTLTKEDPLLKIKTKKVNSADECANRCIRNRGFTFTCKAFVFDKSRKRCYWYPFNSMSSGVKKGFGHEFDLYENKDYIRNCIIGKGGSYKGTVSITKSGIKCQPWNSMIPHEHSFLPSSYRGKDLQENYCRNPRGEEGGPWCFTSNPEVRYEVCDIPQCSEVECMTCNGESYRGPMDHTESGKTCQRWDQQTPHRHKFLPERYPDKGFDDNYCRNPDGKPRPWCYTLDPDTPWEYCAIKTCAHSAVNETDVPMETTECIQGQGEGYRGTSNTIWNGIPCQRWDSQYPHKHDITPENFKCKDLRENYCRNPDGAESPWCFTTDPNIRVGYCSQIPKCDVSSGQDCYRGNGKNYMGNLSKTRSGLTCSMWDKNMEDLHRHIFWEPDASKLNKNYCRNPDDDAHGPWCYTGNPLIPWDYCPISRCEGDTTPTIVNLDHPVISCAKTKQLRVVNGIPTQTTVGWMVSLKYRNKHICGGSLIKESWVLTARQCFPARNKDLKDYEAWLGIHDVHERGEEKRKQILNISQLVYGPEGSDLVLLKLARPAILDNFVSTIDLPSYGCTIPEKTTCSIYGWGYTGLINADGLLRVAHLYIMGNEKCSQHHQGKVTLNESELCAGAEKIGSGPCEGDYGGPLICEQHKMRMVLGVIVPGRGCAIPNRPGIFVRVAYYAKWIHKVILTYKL
Chain of hHGF-Fc G555E (recombinant hHGF protein containing a glycine to glutamate substitution at position 555) (human) (chain, as listed by the source G555E G555E limits assumed): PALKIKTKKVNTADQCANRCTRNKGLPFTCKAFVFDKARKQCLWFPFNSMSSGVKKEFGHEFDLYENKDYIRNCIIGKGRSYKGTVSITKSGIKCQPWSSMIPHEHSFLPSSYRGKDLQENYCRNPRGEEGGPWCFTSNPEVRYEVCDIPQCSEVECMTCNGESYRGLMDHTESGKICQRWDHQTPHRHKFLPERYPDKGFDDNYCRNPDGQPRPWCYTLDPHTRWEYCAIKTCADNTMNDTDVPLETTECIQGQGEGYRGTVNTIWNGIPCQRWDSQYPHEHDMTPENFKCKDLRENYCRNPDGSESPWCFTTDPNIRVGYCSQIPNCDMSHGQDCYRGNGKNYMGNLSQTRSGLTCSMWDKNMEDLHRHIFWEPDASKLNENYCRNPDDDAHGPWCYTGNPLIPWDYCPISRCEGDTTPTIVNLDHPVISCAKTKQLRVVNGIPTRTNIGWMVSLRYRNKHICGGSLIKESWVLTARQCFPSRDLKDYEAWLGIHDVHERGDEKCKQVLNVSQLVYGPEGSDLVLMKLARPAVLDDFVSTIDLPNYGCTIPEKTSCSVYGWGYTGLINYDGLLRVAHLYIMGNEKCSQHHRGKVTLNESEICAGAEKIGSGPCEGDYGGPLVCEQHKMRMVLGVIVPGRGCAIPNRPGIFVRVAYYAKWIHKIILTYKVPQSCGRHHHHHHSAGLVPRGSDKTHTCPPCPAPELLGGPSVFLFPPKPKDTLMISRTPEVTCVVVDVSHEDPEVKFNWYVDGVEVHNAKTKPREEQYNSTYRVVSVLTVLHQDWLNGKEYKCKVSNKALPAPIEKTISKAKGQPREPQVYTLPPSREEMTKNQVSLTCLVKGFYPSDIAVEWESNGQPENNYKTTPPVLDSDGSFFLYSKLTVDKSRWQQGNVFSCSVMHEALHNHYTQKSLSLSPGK
T2 sequence (P14210 32-728 limits assumed): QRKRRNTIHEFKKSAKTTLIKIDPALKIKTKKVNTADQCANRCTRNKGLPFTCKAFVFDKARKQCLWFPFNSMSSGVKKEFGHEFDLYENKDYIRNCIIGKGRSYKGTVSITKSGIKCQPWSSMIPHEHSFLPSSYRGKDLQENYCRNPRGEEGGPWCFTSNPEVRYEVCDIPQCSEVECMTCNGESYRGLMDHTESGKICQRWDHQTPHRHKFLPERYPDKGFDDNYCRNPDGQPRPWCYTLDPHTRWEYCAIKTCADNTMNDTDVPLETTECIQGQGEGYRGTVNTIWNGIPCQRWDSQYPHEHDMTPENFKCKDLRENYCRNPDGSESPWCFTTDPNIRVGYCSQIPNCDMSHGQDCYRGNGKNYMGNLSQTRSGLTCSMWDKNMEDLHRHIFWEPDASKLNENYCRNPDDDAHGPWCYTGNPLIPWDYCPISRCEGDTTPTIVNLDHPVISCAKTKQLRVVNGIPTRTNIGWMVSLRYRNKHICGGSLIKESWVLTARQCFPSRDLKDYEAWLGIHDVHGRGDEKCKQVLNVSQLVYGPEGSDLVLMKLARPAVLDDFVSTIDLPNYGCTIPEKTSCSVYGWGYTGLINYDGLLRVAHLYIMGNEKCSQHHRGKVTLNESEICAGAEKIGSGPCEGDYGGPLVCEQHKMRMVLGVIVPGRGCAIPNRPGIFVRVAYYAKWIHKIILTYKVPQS
Chain of hHGF-Fc C561R (recombinant hHGF protein containing a cysteine to arginine substitution at position 561) (human) (chain, as listed by the source C561R C561R limits assumed): as the sequence (chain, as listed by the source G555E G555E limits assumed) above, with E501G, C507R counted along it

| Binder | IC50, neutralization of HGF stimulated BrdU incorporation in 4 MBr-5 cells [1] [nM] | binding result [2] | binding result [3] | binding result [4] | binding result [5] | EC50, inhibition of HGF-stimulated c-Met phosphorylation in PC-3 cells, Average of Two Trials [6] [nM] | Kd [7] [nM] | koff [7] [s⁻¹] | kon [7] [M⁻¹ s⁻¹] | IC50 [8] [nM] |
| --- | --- | --- | --- | --- | --- | --- | --- | --- | --- | --- |
| anti-hHGF monoclonal antibody 1A3 (antibody, mouse IgG1, kappa, V domains shown, Murine IgG1 kappa from hybridoma) VH: EVQLVESGGGLVQPGGSLKLSCAASEFTFSNYYMSWVRQTPEKRLQWVAYISPGGGSSYYPASVKGRFTISRDNAKNTLYLQMSSLKSEDTAMYYCARQGDGYYGDYAMDYWGQGTSVTVSS VL: DIQMTQSPASLSVSVGETVTITCRASENIYSNLAWYQQKQGKSPQLLVYAATNLADGVPSRFSGSGSGTQFSLKINSLQSEDFGTYYCQHFWGTPYTFGGGTKLEIKR | 4.69 | no binding | no binding | binds | binds | 0.684 | 0.0301 | 5.2e-05 | 1.7e+06 | 5.65 |
| anti-hHGF monoclonal antibody 3A12 (antibody, mouse IgG1, kappa, V domains shown, Murine IgG1 kappa from hybridoma) VH: EVQLVESGGGLVQPGGSLKISCAASGFTFSNYFMSWVRQTPEKRLEWVAYISSGGGSTYYPDSVKGRFTISRDNAKNTLYLQMNSLKSEDTAMYYCVRQGDGYYGDYAMDYWGQGTSVTVSS VL: DIQMTQSPASLSVSVGETVTITCRASENIYINLAWYQQKQGKSPQLLVHAATKLADGVPSRFSGSGSGTQYSLKINSLQSEDFGSYYCQHFWGTPYTFGGGTKLEIKR | 30.3 | no binding | no binding | binds | binds | 2 | 0.103 | 0.00016 | 1.6e+06 | 5.26 |
| anti-hHGF monoclonal antibody 3B6 (antibody, mouse IgG1, kappa, V domains shown, Murine IgG1 kappa from hybridoma) VH: QVQLQQSGAELVRPGSSVKISCKASGYVFSSYWMNWVKQRPGQGLEWIGQIYPGDGDSNYNGNFKGKATLTADKSSSTAYMQLSSLTSEDSAVYFCASQLGLRENYFDYWGQGTTLTVSS VL: DIKMTQSPSSMYASLGERVTITCKASQDIKSYLSWFQQKPGKSPKTLIYRVNRLVDGVPSRFSGSGSGQDSSLTITSLENEDMGIYYCLQYDEFPFTFGGGTKLEIKR | 36.1 | no binding | no binding | binds | binds | 1.01 | 0.017 | 3.9e-05 | 2e+06 |  |
| anti-hHGF monoclonal antibody 3D11 (antibody, mouse IgG1, kappa, V domains shown, Murine IgG1 kappa from hybridoma) VH: QVQLKESGPGLVAPSQSLSITCTVSGFSLTSYSLHWVRQPPGKGLEWLGVIWAGGNTNYNSSLMSRLTIRKDNSKSQVFLKMNSLQTDDTAMYYCARERFAYWGQGTLVTVSA VL: QIVLTQSPAIMSAYPGEKVTMTCSASSSVSYMHWYQQKSGTSPKRWIYDTSKLASGVPARFSGSGSGTSYSLTISSMEAEDAATYYCQQWSSNPLTFGAGTKLELKR | 51.1 | no binding | no binding | binds | binds | 2.28 |  |  |  | 5.66 |
| anti-hHGF monoclonal antibody 2F8 (antibody, mouse IgG1, kappa, V domains shown, Murine IgG1 kappa from hybridoma) VH: QVQLKQSGAELVRPGTSVKMSCKASGYTFTTYYIHWVNQRPGQGLEWIGKIGPGSGSTYYNEMFKDKATLTVDTSSSTAYMQLSSLTSDDSAVYFCARRGLGRGFDYWGQGTTLTVSS VL: DIVLTQSPASLAVSLGQRATISCKASQSVDYDGNSYINWYQQKPGQPPKVLIYVASNLESGIPARFSGSGSGTDFTLNIHPVEEEDAATYYCQQSIEDPPTFGAGTKLELKR | 19.2 | no binding | binds | binds | binds | 1.39 |  |  |  | 5.36 |
